First the molecules themselves.
B1: glmS ribozyme (parent)
chain: AUAAAAGCGCCAGAACUACAGAAAUGUAGUUGACGAGGAGGAGGUUUAUCGAAUUUUCGGCGGAUGCCUCCAAA

± gives the standard error. Variants at the floor of the assay were thinned out.

In the first data set the parent is B1. Nature of the data set: self-cleavage kobs at 2500 uM GlcN6P; higher = faster cleavage; RNA array. Particulars: with glucosamine-6-phosphate. Summed up: (§1)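 Ribozyme variants carrying barcodes were transcribed in situ on sequenced MiSeq chips by E. coli RNA polymerase and tracked at 37 °C with a hybridised Cy3 probe. They were exposed to 40 μM to 10 mM glucosamine-6-phosphate in HEPES/KCl/Mg(OAc)2 buffer. kobs came from exponential decay fits of normalised per-tile medians, and kcat and KM from weighted Michaelis–Menten fits.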
Turning to A14C G40U A53G, the “self-cleavage kobs at 2500 uM GlcN6P” value came to 0.000325 ± 5.5e-05 s⁻¹.
In the case of G44A A52U G60U, the “self-cleavage kobs at 2500 uM GlcN6P” value was < 1e-05 s⁻¹.
C8A A12C A36U G59U: the “self-cleavage kobs at 2500 uM GlcN6P” value is < 1e-05 s⁻¹.
As to G37A G44C, the “self-cleavage kobs at 2500 uM GlcN6P” value is 4.54e-05 ± 1.3e-05 s⁻¹.
As to A39C G43U A48U G51U, the “self-cleavage kobs at 2500 uM GlcN6P” value is < 1e-05 s⁻¹.
For the variant G13A A36G C58G C68G, the “self-cleavage kobs at 2500 uM GlcN6P” value was determined as 0.000157 ± 5.4e-05 s⁻¹.
Consider U65G C67G C68G, for which the “self-cleavage kobs at 2500 uM GlcN6P” value was 3.55e-05 ± 1.4e-05 s⁻¹.
For A42G G43A G62U, the “self-cleavage kobs at 2500 uM GlcN6P” value was < 1e-05 s⁻¹.
G40A G44A: the “self-cleavage kobs at 2500 uM GlcN6P” value was 4.13e-05 ± 1.2e-05 s⁻¹.
Turning to A39G U57A C61A, the “self-cleavage kobs at 2500 uM GlcN6P” value was < 1e-05 s⁻¹.
As for C11U G13C U46G A64U, the “self-cleavage kobs at 2500 uM GlcN6P” value was < 1e-05 s⁻¹.
Same read-out and setting: the same measure for C16U U57A G59C: < 1e-05 s⁻¹.
U30G U46G C58U: the “self-cleavage kobs at 2500 uM GlcN6P” value is < 1e-05 s⁻¹.
Same read-out and setting: the same measure for A6U C16G A36U G41U G43C: < 1e-05 s⁻¹.
In the case of C11A A12U G32U C50U U56A C58A, the “self-cleavage kobs at 2500 uM GlcN6P” value is < 1e-05 s⁻¹.
For C10U C11U A36C A42U A48C, the “self-cleavage kobs at 2500 uM GlcN6P” value was < 1e-05 s⁻¹.
On the same count and under the same terms, the same measure for A33G C34A U46A C61A: < 1e-05 s⁻¹; for G9C A33C A48G U54G: < 1e-05 s⁻¹; for G13C G44C A53U: < 1e-05 s⁻¹.
Consider C34U G37A A39C, for which the “self-cleavage kobs at 2500 uM GlcN6P” value was < 1e-05 s⁻¹.
On to A14C G32A C67G, for which the “self-cleavage kobs at 2500 uM GlcN6P” value turned out to be 6.42e-05 ± 1.9e-05 s⁻¹.
G7C C10A C16G C61A: the “self-cleavage kobs at 2500 uM GlcN6P” value was < 1e-05 s⁻¹.
Regarding A15G U55G C71U, the “self-cleavage kobs at 2500 uM GlcN6P” value amounted to 0.00368 ± 0.0014 s⁻¹.
With G7U C8G U49A, the “self-cleavage kobs at 2500 uM GlcN6P” value was < 1e-05 s⁻¹.
In the case of C11U U31A G32A G38A C70G, the “self-cleavage kobs at 2500 uM GlcN6P” value turned out to be 7.58e-05 ± 2.6e-05 s⁻¹.
As for G40U G44A U55C C67U, the “self-cleavage kobs at 2500 uM GlcN6P” value is < 1e-05 s⁻¹.
Still for that read-out and setting: the value for C11U C34A G44A was < 1e-05 s⁻¹.
The same measure, in the same setting: the same measure for A6G A12C U55C C67U: < 1e-05 s⁻¹; for C16U A36U A39U A52U: < 1e-05 s⁻¹.
As for G40C U47A U65G, the “self-cleavage kobs at 2500 uM GlcN6P” value was 0.000652 ± 0.00017 s⁻¹.
As for A39U A42U U47A, the “self-cleavage kobs at 2500 uM GlcN6P” value stood at 0.0025 ± 0.0012 s⁻¹.
As for A6U G9A A42C, the “self-cleavage kobs at 2500 uM GlcN6P” value was < 1e-05 s⁻¹.
Same read-out and setting: the same measure for A12G A64U C67G: < 1e-05 s⁻¹; for A6U A14G U69G: 0.000146 ± 3.5e-05 s⁻¹.
For C8U A14U G32U G41C C67U, the “self-cleavage kobs at 2500 uM GlcN6P” value is < 1e-05 s⁻¹.
Regarding A6U C8U C16U U30C G44U U55A C67G, the “self-cleavage kobs at 2500 uM GlcN6P” value is < 1e-05 s⁻¹.
G35U A36U A53U G63C: the “self-cleavage kobs at 2500 uM GlcN6P” value is < 1e-05 s⁻¹.
Consider A14U U45G G60U, for which the “self-cleavage kobs at 2500 uM GlcN6P” value was < 1e-05 s⁻¹.
Consider G66A C67U C70U, for which the “self-cleavage kobs at 2500 uM GlcN6P” value is 0.000488 ± 0.00017 s⁻¹.
On to G13C C34A C67U, for which the “self-cleavage kobs at 2500 uM GlcN6P” value is < 1e-05 s⁻¹.
For the variant U49C U55C C70G, the “self-cleavage kobs at 2500 uM GlcN6P” value is < 1e-05 s⁻¹.
G35U G40A G41U U45G A53G: the “self-cleavage kobs at 2500 uM GlcN6P” value was < 1e-05 s⁻¹.
For the variant A6G A36C C58A, the “self-cleavage kobs at 2500 uM GlcN6P” value is < 1e-05 s⁻¹.
For the variant A14G G41A G62U, the “self-cleavage kobs at 2500 uM GlcN6P” value is < 1e-05 s⁻¹.
On the same count and under the same terms, the value for A14C C16U G43C was < 1e-05 s⁻¹; that for C19A G32C was 4.68e-05 ± 1.6e-05 s⁻¹.
Take G44U U45A U47A: the “self-cleavage kobs at 2500 uM GlcN6P” value is 0.000474 ± 0.0002 s⁻¹.
Same read-out and setting: the same measure for A15G G32A G35U A52C: < 1e-05 s⁻¹; for A14C G29C A64G: 5.47e-05 ± 2e-05 s⁻¹.
The same measure, in the same setting: the value for A6U A15G A53G was 0.000262 ± 4.9e-05 s⁻¹; that for A15G G38A A48U was < 1e-05 s⁻¹; that for A14C U31C A36G G38C G41U G51U was < 1e-05 s⁻¹.
Take G35U U54C C58A: the “self-cleavage kobs at 2500 uM GlcN6P” value is < 1e-05 s⁻¹.
On to C8A A33C A42G U65G, for which the “self-cleavage kobs at 2500 uM GlcN6P” value was < 1e-05 s⁻¹.
As to A12C A14G U69G, the “self-cleavage kobs at 2500 uM GlcN6P” value was determined as 0.000112 ± 3.2e-05 s⁻¹.
On to C16G U30A A42C U69G, for which the “self-cleavage kobs at 2500 uM GlcN6P” value turned out to be 0.000262 ± 6.8e-05 s⁻¹.
Take G44U U56C U57A: the “self-cleavage kobs at 2500 uM GlcN6P” value was < 1e-05 s⁻¹.
C8A G13U U56G A64G: the “self-cleavage kobs at 2500 uM GlcN6P” value was < 1e-05 s⁻¹.
Consider C10G A36G A52U, for which the “self-cleavage kobs at 2500 uM GlcN6P” value was < 1e-05 s⁻¹.
As for C16A A39G U69G, the “self-cleavage kobs at 2500 uM GlcN6P” value came to 0.000118 ± 3.8e-05 s⁻¹.
Still for that read-out and setting: the value for G32C G37A A42C A53C was < 1e-05 s⁻¹; that for A15G G44U C50U A64U was < 1e-05 s⁻¹; that for A12G C16U G43A U45C was < 1e-05 s⁻¹.
On the same count and under the same terms, the same measure for G29A U30C A48U C58U: < 1e-05 s⁻¹; for A6U G44A A48U G63A U65C: < 1e-05 s⁻¹; for G32A U69C: 0.000191 ± 7.8e-05 s⁻¹.
The same measure, in the same setting: the value for A12U U31C U57G was 5.17e-05 ± 1.8e-05 s⁻¹.
Consider C11U U31C G41U A64G C70A, for which the “self-cleavage kobs at 2500 uM GlcN6P” value was 0.0011 ± 0.0003 s⁻¹.
In the case of C8A G40C U47A A64U, the “self-cleavage kobs at 2500 uM GlcN6P” value was < 1e-05 s⁻¹.
In the case of C34U A39C G59A, the “self-cleavage kobs at 2500 uM GlcN6P” value was < 1e-05 s⁻¹.
Consider A6G A42G C67U C70U, for which the “self-cleavage kobs at 2500 uM GlcN6P” value is < 1e-05 s⁻¹.
In the case of C16U A39G A48C, the “self-cleavage kobs at 2500 uM GlcN6P” value is 0.000168 ± 5e-05 s⁻¹.
In the case of A15U G40A A52C G66U, the “self-cleavage kobs at 2500 uM GlcN6P” value is < 1e-05 s⁻¹.
C16A G43U A53U G60A C68A: the “self-cleavage kobs at 2500 uM GlcN6P” value is < 1e-05 s⁻¹.
As to A14U G51C A64G, the “self-cleavage kobs at 2500 uM GlcN6P” value was < 1e-05 s⁻¹.
A53G G63U C71A: the “self-cleavage kobs at 2500 uM GlcN6P” value was < 1e-05 s⁻¹.
Regarding C10A G66A C68A, the “self-cleavage kobs at 2500 uM GlcN6P” value was 5.96e-05 ± 2.6e-05 s⁻¹.
Take C11U G29U C67G: the “self-cleavage kobs at 2500 uM GlcN6P” value came out at 0.000197 ± 6.6e-05 s⁻¹.
In the case of G9C G40U C67U, the “self-cleavage kobs at 2500 uM GlcN6P” value was < 1e-05 s⁻¹.
Turning to G9U G13U A14G G37A G60C C71U, the “self-cleavage kobs at 2500 uM GlcN6P” value is < 1e-05 s⁻¹.
In the case of A33U C67A U69A, the “self-cleavage kobs at 2500 uM GlcN6P” value was < 1e-05 s⁻¹.

A further data set covers variants of B1. The data set can be described thus: self-cleavage kobs at 10000 uM GlcN6P; higher = faster cleavage; RNA array. The settings on record: with glucosamine-6-phosphate. The method, boiled down: as §1
Consider A14C G40U A53G, for which the “self-cleavage kobs at 10000 uM GlcN6P” value came out at 0.000591 ± 0.0001 s⁻¹.
As for C11U G13C U46G A64U, the “self-cleavage kobs at 10000 uM GlcN6P” value was < 1e-05 s⁻¹.
Turning to A39U A42U U47A, the “self-cleavage kobs at 10000 uM GlcN6P” value worked out at 0.00362 ± 0.0011 s⁻¹.
As to A12G A64U C67G, the “self-cleavage kobs at 10000 uM GlcN6P” value was < 1e-05 s⁻¹.
For the variant A6U A15G A53G, the “self-cleavage kobs at 10000 uM GlcN6P” value is 0.000262 ± 5.8e-05 s⁻¹.
For the variant G32A U69C, the “self-cleavage kobs at 10000 uM GlcN6P” value amounted to 0.000717 ± 0.00016 s⁻¹.
On the same count and under the same terms, the value for C16U A39G A48C was 0.000325 ± 9.5e-05 s⁻¹.
